The record followed here is the Human Domainome abundance scans (Beltran et al. 2025).

± gives the uncertainty stated by the source.

First the molecules themselves.
B1: Tyrosine-protein kinase BTK, residues 215 to 273; numbered along this chain, Q06187 (parent)
chain: ELKKVVALYDYMPMNANDLQLRKGDEYFILEESNLPWWRARDKNGQEGYIPSNYVTEAE

In this series the parent is B1. Put plainly: abundance fitness (aPCA) (normalised: wild type 0, dead -1); higher = more abundant; growth selection in yeast, the domain comes from the species named. The settings on record: Homo sapiens.
Turning to Y49M, the abundance fitness worked out at 0.023 ± 0.047.

As for W37L, the abundance fitness is -0.014 ± 0.032.

In the case of W37S, the abundance fitness was -0.017 ± 0.036.

W37P: the abundance fitness was -0.227 ± 0.052.

On to W37H, for which the abundance fitness came out at 0.014 ± 0.062.

With W37G, the abundance fitness is -0.134 ± 0.036.

Take W37F: the abundance fitness is -0.011 ± 0.051.

Take I50H: the abundance fitness was -0.592 ± 0.17.

Consider I50R, for which the abundance fitness is -1.01 ± 0.091.

Consider W38L, for which the abundance fitness was -0.005 ± 0.029.

With W38Y, the abundance fitness was determined as 0.044 ± 0.063.

Regarding W38N, the abundance fitness is -0.098 ± 0.056.

Take W38K: the abundance fitness was -0.008 ± 0.043.

Take W38F: the abundance fitness was -0.031 ± 0.043.

Take Y54K: the abundance fitness was -0.159 ± 0.07.

Turning to Y54W, the abundance fitness is -0.074 ± 0.06.

Y54L: the abundance fitness was -0.109 ± 0.034.

With D18E, the abundance fitness amounted to 0.05 ± 0.039.

Take D18I: the abundance fitness was -0.033 ± 0.077.

Regarding D18Q, the abundance fitness is 0.018 ± 0.043.

On to E47Y, for which the abundance fitness was -0.268 ± 0.057.

As for E47L, the abundance fitness was -0.163 ± 0.035.

For E47F, the abundance fitness is -0.235 ± 0.055.

Regarding E47I, the abundance fitness was -0.142 ± 0.072.

Turning to V5K, the abundance fitness is -0.288 ± 0.056.

For the variant V5S, the abundance fitness was -0.404 ± 0.04.

Regarding V5L, the abundance fitness was -0.244 ± 0.035.

On to V5E, for which the abundance fitness is -0.708 ± 0.079.

As for T56N, the abundance fitness was -0.094 ± 0.087.

Consider N34C, for which the abundance fitness stood at 0.046 ± 0.1.

For N34S, the abundance fitness was determined as 0.033 ± 0.043.

For the variant N34A, the abundance fitness was found to be 0.026 ± 0.044.

In the case of N34L, the abundance fitness is 0.033 ± 0.036.

In the case of K23A, the abundance fitness is -0.024 ± 0.049.

V6M: the abundance fitness was -0.1 ± 0.044.

Regarding V6K, the abundance fitness was -0.023 ± 0.04.

Regarding V6I, the abundance fitness is -0.028 ± 0.027.

N44D: the abundance fitness is -0.01 ± 0.066.

N44W: the abundance fitness is -0.056 ± 0.065.

For the variant N44E, the abundance fitness was -0.009 ± 0.061.

With E31M, the abundance fitness amounted to 0.026 ± 0.048.

Regarding E31A, the abundance fitness was -0.008 ± 0.052.

As to Q46R, the abundance fitness is -0.016 ± 0.035.

Q46P: the abundance fitness was -0.616 ± 0.073.

With Q46D, the abundance fitness is -0.077 ± 0.079.

For A40G, the abundance fitness is -0.047 ± 0.035.

As to A40N, the abundance fitness is -0.981 ± 0.14.

Consider A40V, for which the abundance fitness is -0.047 ± 0.04.

In the case of A40E, the abundance fitness was -0.965 ± 0.11.

Turning to L21G, the abundance fitness was -1.06 ± 0.073.

As for L21K, the abundance fitness was -0.892 ± 0.12.

Take L21Y: the abundance fitness was -1.09 ± 0.12.

Consider L21D, for which the abundance fitness is -1.05 ± 0.16.

Consider L21S, for which the abundance fitness was -0.811 ± 0.057.

In the case of E26I, the abundance fitness is -0.013 ± 0.051.

With E26P, the abundance fitness is -0.041 ± 0.051.

As to E26R, the abundance fitness is -0.068 ± 0.038.

In the case of N15W, the abundance fitness is -0.14 ± 0.04.

Turning to N15G, the abundance fitness turned out to be 0.065 ± 0.031.

N15T: the abundance fitness amounted to 0.089 ± 0.042.

M12Y: the abundance fitness is -0.018 ± 0.069.

In the case of M12F, the abundance fitness was -0.062 ± 0.068.

As to M12S, the abundance fitness was found to be 0.007 ± 0.037.

As to S33Y, the abundance fitness was -0.065 ± 0.059.

S33C: the abundance fitness is -0.039 ± 0.057.

Turning to S33G, the abundance fitness was -0.019 ± 0.038.

On to S33E, for which the abundance fitness is -0.038 ± 0.062.

Regarding K3V, the abundance fitness was -0.107 ± 0.041.

With K3G, the abundance fitness is -0.227 ± 0.042.

For K3F, the abundance fitness was -0.038 ± 0.065.

Turning to K3W, the abundance fitness is -0.253 ± 0.05.

As for S52K, the abundance fitness amounted to 0.088 ± 0.071.

As for Y9K, the abundance fitness came out at 0.073 ± 0.045.

For Y9L, the abundance fitness stood at 0.056 ± 0.029.

With Y9M, the abundance fitness stood at 0.053 ± 0.038.

As to Y9E, the abundance fitness came to 0.001 ± 0.039.

For the variant D42Y, the abundance fitness is -0.889 ± 0.092.

Take D42L: the abundance fitness is -0.81 ± 0.052.

Regarding L35W, the abundance fitness is -0.015 ± 0.043.

For P51E, the abundance fitness is -0.373 ± 0.047.

P51C: the abundance fitness is -0.126 ± 0.059.

With P51S, the abundance fitness is -0.186 ± 0.043.

Take F28P: the abundance fitness is -0.631 ± 0.1.

Take F28T: the abundance fitness is -0.02 ± 0.045.

With V55H, the abundance fitness is -0.852 ± 0.11.

On to V55L, for which the abundance fitness is -0.292 ± 0.042.

In the case of V55C, the abundance fitness was -0.083 ± 0.048.

With R41Y, the abundance fitness is -0.234 ± 0.11.

As for R41Q, the abundance fitness is -0.006 ± 0.057.

In the case of R41I, the abundance fitness is -0.158 ± 0.088.

For the variant R41L, the abundance fitness is -0.072 ± 0.036.

R41N: the abundance fitness was -0.674 ± 0.12.

Regarding K4H, the abundance fitness was -0.322 ± 0.09.

Turning to K4M, the abundance fitness was -0.133 ± 0.061.

For the variant K4Q, the abundance fitness was -0.088 ± 0.059.

As for E1Y, the abundance fitness was -0.062 ± 0.16.

For E1F, the abundance fitness is -0.094 ± 0.2.

Turning to E1C, the abundance fitness is -0.252 ± 0.16.

Turning to E1Q, the abundance fitness is -0.121 ± 0.12.

On to A16L, for which the abundance fitness was -0.083 ± 0.027.

Regarding A16W, the abundance fitness is -0.105 ± 0.037.

Consider E32Q, for which the abundance fitness came to 0.028 ± 0.075.

As to E32Y, the abundance fitness was -0.083 ± 0.061.

In the case of L19D, the abundance fitness is -0.936 ± 0.086.

For G45T, the abundance fitness was -0.425 ± 0.062.

For G45R, the abundance fitness was -0.16 ± 0.032.

Consider G45W, for which the abundance fitness is -0.224 ± 0.036.

As to G45S, the abundance fitness is -0.125 ± 0.04.

Take G45H: the abundance fitness is -0.118 ± 0.12.

With G45Y, the abundance fitness is -0.062 ± 0.072.

Turning to I29K, the abundance fitness is -0.241 ± 0.054.

With I29E, the abundance fitness is -0.58 ± 0.057.

As to D25P, the abundance fitness is -1.15 ± 0.15.

For D25H, the abundance fitness was -0.01 ± 0.048.

For D25S, the abundance fitness is -0.071 ± 0.035.

On to E57T, for which the abundance fitness is -0.006 ± 0.051.

In the case of E57G, the abundance fitness worked out at 0.01 ± 0.048.

Take E57Y: the abundance fitness was -0.018 ± 0.083.

Consider E57N, for which the abundance fitness turned out to be 0.088 ± 0.069.

Regarding N17L, the abundance fitness is -0.019 ± 0.031.

Consider N17M, for which the abundance fitness is -0.017 ± 0.05.

On to N17T, for which the abundance fitness is 0.002 ± 0.051.

In the case of P13Y, the abundance fitness is -0.774 ± 0.1.

Turning to Y27N, the abundance fitness was -0.537 ± 0.1.

Turning to Y27E, the abundance fitness was -0.646 ± 0.064.

As to Y27G, the abundance fitness is -0.745 ± 0.056.

As to Q20V, the abundance fitness is -0.082 ± 0.034.

In the case of Q20K, the abundance fitness is -0.075 ± 0.075.

Q20R: the abundance fitness was -0.013 ± 0.045.

On to Q20L, for which the abundance fitness is -0.055 ± 0.038.

Turning to E59L, the abundance fitness was -0.097 ± 0.06.

On to E59F, for which the abundance fitness is -0.072 ± 0.1.

In the case of P36L, the abundance fitness was -0.094 ± 0.058.

Regarding P36Y, the abundance fitness was -0.148 ± 0.058.

For the variant P36A, the abundance fitness is 0.012 ± 0.049.

Turning to P36G, the abundance fitness was -0.089 ± 0.038.

N53F: the abundance fitness is -0.137 ± 0.066.

As for N53R, the abundance fitness was -0.03 ± 0.04.

Take N53D: the abundance fitness is -0.043 ± 0.065.

For N53C, the abundance fitness was -0.164 ± 0.077.

As to N53Y, the abundance fitness is -0.202 ± 0.071.

G48L: the abundance fitness was -0.993 ± 0.052.

Consider D10G, for which the abundance fitness was -0.168 ± 0.2.

For G24C, the abundance fitness was -0.472 ± 0.087.

Turning to G24F, the abundance fitness was -0.156 ± 0.058.

In the case of L2E, the abundance fitness was -0.126 ± 0.06.

With A7D, the abundance fitness was -0.909 ± 0.11.

As to A7Y, the abundance fitness was -1.06 ± 0.12.

Regarding A7W, the abundance fitness is -1.03 ± 0.071.

Regarding A7G, the abundance fitness was -0.364 ± 0.032.

With A58W, the abundance fitness is -0.11 ± 0.083.

As for K43E, the abundance fitness was -0.005 ± 0.047.

On to K43D, for which the abundance fitness was -0.094 ± 0.057.

Turning to L30I, the abundance fitness was -0.026 ± 0.056.

For Y11F, the abundance fitness was determined as 0.005 ± 0.05.

As to Y11C, the abundance fitness was -0.202 ± 0.05.

As to R22A, the abundance fitness is -0.032 ± 0.038.

R22L: the abundance fitness was -0.002 ± 0.034.

For R22W, the abundance fitness was -0.099 ± 0.037.

Take R22V: the abundance fitness came out at 0.031 ± 0.033.

Take R22C: the abundance fitness is -0.004 ± 0.049.

Turning to M14Y, the abundance fitness is -0.15 ± 0.12.

As for M14H, the abundance fitness was 0.068 ± 0.1.

As for M14G, the abundance fitness was determined as 0.02 ± 0.035.

Turning to R39K, the abundance fitness is -0.064 ± 0.051.

Regarding R39W, the abundance fitness was -0.042 ± 0.046.

R39Q: the abundance fitness was -0.031 ± 0.06.
